Source: US20240327455A1, “HIGH-AFFINITY SUPRAMOLECULAR POLYMERS FOR BINDING-TRIGGERED ANTIBODY PRECIPITATION AND PURIFICATION” (The Johns Hopkins University, priority 2021, published 2024)
≈ marks a conversion by molar mass, not a printed value. One block for each molecule: values may come before it. Peptide text beside a SMILES is read from it. * marks the point of attachment. Lauroyl = CCCCCCCCCCCC(=O)*

How the values were obtained:
[1] = Solubility limit of filler molecule in PBS; type: physicochemical; conditions: in PBS (pH 7.4)
[2] = CMC measurement with Nile Red; type: physicochemical; conditions: ligand molecules in PBS
Experimental: CMC measurement. The CMCs of the ligand molecules in PBS were determined using Nile Red, a hydrophobic dye that undergoes changes in both fluorescence intensity and emission wavelength (a blue-shift) upon partition into the hydrophobic domains of supramolecular assemblies. Nile Red was initially dissolved in acetone at 20 μM and 10 μl aliquots were loaded into several centrifuge tubes. After the acetone evaporated under room temperature. 500 μl fresh ligand solutions in PBS at various concentrations were added into the centrifuge tubes containing dry Nile Red and aged overnight for assembly. Fluorescent spectra of Nile Red were then monitored by a Fluorolog fluorometer (Jobin Yvon, Edison, NJ, USA) with fixed excitation wavelength at 560 nm; emission spectra were monitored at 580-720 nm. The ratio of the emission intensity at 635 nm (emission maximum of Nile red in a hydrophobic environment) to that at 660 nm (emission maximum of Nile red in an aqueous environment) was then plotted against the tested concentrations to obtain a transition curve, and the CMC value was determined by the intersection of the two fitting lines.

[3] = Self-assembly and TEM imaging (filament diameter); type: physicochemical; conditions: self-assembled in PBS pH 7.4; mean±SD (n=30)
Experimental: Self-Assembly, Co-Assembly, and TEM Imaging. For self-assembly, filler or ligand molecules were dissolved in PBS (20 mM sodium phosphate, 150 mM sodium chloride, pH 7.4) to reach a final concentration of 2.5 mM or 400 μM, respectively, and aged for 24 hours at room temperature. To construct co-assembled IFs, filler and ligand molecules were pretreated with hexafluoroisopropanol (HFIP) to eliminate any pre-existing nanostructures that could be possibly formed during the synthesis and purification process. After HFIP evaporation, filler and ligand molecules were dissolved in PBS (20 mM sodium phosphate, 150 mM sodium chloride, pH 7.4) to reach desired concentrations and aged for 24 hours at room temperature. 10 μl stock of each sample solution was then spotted on carbon film coated copper grids with 400 square mesh (Electron Microscopy Sciences, Hatfield, PA, USA) and the excess was removed with filter paper to leave a thin film of sample on the grid. After letting the sample dry for 5 minutes, 10 μl 2% uranyl acetate was added to the sample grid, and the excess was removed after 30 seconds. All samples were dried for at least three hours before imaging. Bright-field TEM imaging was performed on a FEI Tecnai 12 TWIN Transmission Electron Microscope and all TEM images were required by a SIS Megaview III wide-angle CCD camera.

pure mAb1 [4] = target: T1, pure mAb1 (Homo sapiens, UniProt P01857); test: mAb precipitation experiment with co-assembled IFs; conditions: for mAb precipitation yield at optimal O16 concentration: 2.5 mM filler
T1 construct: host or cells: CHO is stated only for the clarified harvest
Experimental: mAb Precipitation Experiment. IF stock solutions at desired filler and ligand concentrations were prepared one day before the precipitation experiment. In experimental groups, pure mAb1 from a concentrated solution (448 μM, 64.5 g/L) was then added into 100 μL IF solutions to reach a desired final concentration and incubated for 30 minutes at room temperature. The solution was then centrifuged at 15000 rpm for 15 minutes. For the 1M salt group, ammonium sulfate was added to the mAb-IF mixtures to reach a final concentration of 1M and incubated for another 30 minutes before centrifugation. The supernatant was taken out and analyzed by ProA-HPLC (POROS™ A 20 μm Column, Stainless Steel, 2.1×30 mm, 0.1 mL) to determine the protein concentrations. The precipitated amount of each species was calculated by subtracting the amount in the supernatant from the amount added. The precipitation yield was calculated by dividing […].

mAb1 = target: T2, mAb1 (Homo sapiens, UniProt P01857); test: Turbidity of mAb1-IF mixture (absorbance at 350 nm); conditions: 40 μM mAb1, 2.5 mM filler, 250 μM O16, absorbance at 350 nm
T2 construct: host or cells: CHO is stated only for the clarified harvest

pure mAb1 [5] = target: T1, pure mAb1; test: Sequential precipitation and mAb elution using IF solutions
Experimental: Sequential Precipitation and mAb Elution Using IF Solutions. Three IF stock solutions. IF1 (2.5 mM filler, 250 μM O16). IF2 (2.5 mM filler, 750 μM O16), and IF3 (2.5 mM filler. 200 μM O16), were prepared one day before the precipitation experiment. Pure mAb1 from a concentrated solution (448 μM, 64.5 g/L) was added into 100 uL IF1 and 100 uL IF2 to reach a desired final concentration of 40 μM and 80 μM, respectively. After a 4-hour incubation, the samples were then centrifuged at 15000 rpm for 15 minutes and the supernatant was transferred to 100 uL IF3 for another 4-hour incubation and subsequent centrifugation. 200 μL PBS and 400 μL elution buffer (40 mM sodium acetate. pH 3.7) were then used to wash and resuspend the precipitates from the two precipitation steps. The supernatant from each precipitation step, wash step, and elution step were analyzed by ProA-HPLC (POROS™ A 20 μm Column, Stainless Steel, 2.1×30 mm, 0.1 mL) to determine mAb concentration.

[6] = target: T3, mAb1 in clarified CHO cell culture harvest (Homo sapiens, UniProt P01857); test: Purification of mAb1 from clarified cell culture harvest; conditions: sequential precipitation, no salt
T3 construct: host or cells: Chinese hamster ovary (CHO) cells; harvest clarified by depth filtration
Experimental: Purification of mAb1 from Clarified Cell Culture Harvest. mAb1 at clarified bulk state were incubated with optimized IFs (100 μL) at a concentration of 40 μM or 80 μM for 30 minutes. Same procedures were performed to precipitate mAb1 and obtain the centrifuged pellets. The pellets were then resuspended in […] (400 μL, 40 mM sodium acetate. pH 3.7) and transferred to a dialysis tube (Pur-A-Lyzer Maxi, 50 kDa cut-off molecular weight. Sigma-Aldrich. St. Louis, MO. USA). The resuspended solution was then dialyzed against 40 mM sodium acetate (1 L) at pH 3.7 for 24 hours with dialysis buffer replaced three times. The protein, filler, and ligand concentrations were determined by ProA-HPLC and RP-UPLC.

pure mAb1 [7] = target: T1, pure mAb1; test: Sequential precipitation of high mAb titers using lyophilized IFs; conditions: lyophilized IFs (2.5 mM filler, 400 μM O16); for mAb precipitation yield after six precipitation steps: no salt
Experimental: Sequential Precipitation of High mAb Titers Using Lyophilized IFs. Six lyophilized IF stock powders (IF4-IF9) were prepared such that upon dissolution in 100 μL, the concentrations of the filler and O16 would be 2.5 mM and 400 μM, respectively. Lyophilized IF powders were prepared one day before the precipitation experiment. The IFs were allowed to co-assemble in water for 24 hours prior to lyophilization. Pure mAb1 from concentrated stock solutions of either (146 μM, 21 g/L) or (215 μM, 31 g/L) was added to the lyophilized IF4. After a 1-hour incubation, the samples were centrifuged at 15000 rpm for 15 minutes. Following centrifugation, the volume of supernatant was measured and fresh PBS was added until a final supernatant volume of 100 μL was reached. The 100 μL supernatant following the first precipitation step was then added to the next lyophilized IF stock powder (IF5) and allowed to incubate for another hour. This process of incubation, centrifugation, and supernatant transfer was repeated until all six lyophilized IFs (IF4-IF9) had been used for mAb precipitation. The supernatants after the first, third, and sixth precipitation steps were analyzed using ProA-HPLC to measure the cumulative amount of mAbs remaining throughout the precipitation process.

pure mAb1 [8] = target: T1, pure mAb1; test: mAb precipitation experiment with co-assembled IFs; conditions: 40 μM mAb1, 2.5 mM filler

T1 sequence (P01857 1-330 isoform P01857-1): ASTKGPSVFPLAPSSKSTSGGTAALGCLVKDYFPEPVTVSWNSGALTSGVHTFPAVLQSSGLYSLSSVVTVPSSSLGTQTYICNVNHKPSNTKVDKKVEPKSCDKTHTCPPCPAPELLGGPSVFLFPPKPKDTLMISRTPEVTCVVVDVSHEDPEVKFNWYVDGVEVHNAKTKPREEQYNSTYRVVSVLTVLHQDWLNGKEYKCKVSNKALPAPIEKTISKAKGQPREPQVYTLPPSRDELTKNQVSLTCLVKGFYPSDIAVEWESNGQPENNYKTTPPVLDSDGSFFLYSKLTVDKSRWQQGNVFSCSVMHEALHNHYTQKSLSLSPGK
T3 sequence (P01857 1-330 isoform P01857-1): as above
T2 sequence (P01857 1-330 isoform P01857-1): as above

solubility [1]: 2500 µM (≈ 1640 µg/mL)
Molecule: CCCCCCCCCCCC(=O)N[C@H](C(=O)N[C@H](C(=O)N[C@@H](CCC(=O)O)C(=O)N[C@@H](CCC(=O)O)C(=O)O)C(C)C)C(C)C [C12-VVEE] (Lauroyl-VVEE-OH; N-terminus and C-terminus assumed)

mAb precipitation yield (pure mAb1 [4]; 40 μM mAb1, 2.5 mM filler, 250 μM O16, binding time 30 minutes): 83%
mAb precipitation yield at optimal O16 concentration (pure mAb1 [4]; 40 μM mAb1, no salt): around 85%
mAb precipitation yield (pure mAb1 [4]; 40 μM mAb1, optimal IFs (2.5 mM filler, 250 μM O16), 1 M salt): More than 99%
mAb precipitation yield (pure mAb1 [4]; 40 μM mAb1, optimal IFs (2.5 mM filler, 250 μM O16), no salt): 88%
mAb precipitation yield at optimal O16 concentration (pure mAb1 [4]; 80 μM mAb1, no salt): around 85%
mAb precipitation yield at optimal O16 concentration (pure mAb1 [4]; 133 μM mAb1, no salt): about 65%
O16 concentration giving the best mAb precipitation yield (pure mAb1 [4]; 100 μL mAb1 at 10 μM and 20 μM with 100 μL IFs): 200 µM
time to turbidity plateau (mAb1): ≤ 30 min
mAb1 precipitated in first precipitation (pure mAb1 [5]; 40 μM pure mAb1, IFs with 250 μM O16, no salt): More than 82%
elution yield (pure mAb1 [5]; 40 μM pure mAb1, elution buffer 40 mM sodium acetate pH 3.7): ~88%
final precipitation yield after two sequential precipitations (pure mAb1 [5]; 40 μM pure mAb1, second step IFs with 200 μM O16, no salt): greater than 97%
mAb1 precipitated in first precipitation (pure mAb1 [5]; 80 μM pure mAb1, IFs with 750 μM O16, no salt): More than 82%
elution yield (pure mAb1 [5]; 80 μM pure mAb1, elution buffer 40 mM sodium acetate pH 3.7): ~88%
final precipitation yield after two sequential precipitations (pure mAb1 [5]; 80 μM pure mAb1, second step IFs with 200 μM O16, no salt): greater than 97%
mAb1 precipitation yield from clarified cell culture harvest ([6]; 40 μM mAb1 CB): more than 86%
mAb1 precipitation yield from clarified cell culture harvest ([6]; 80 μM mAb1 CB): > 90%
mAb precipitation yield after six precipitation steps (pure mAb1 [7]; 21 mg/mL pure mAb): 96%
mAb precipitation yield after six precipitation steps (pure mAb1 [7]; 31 mg/ml pure mAb): 98%
mAb precipitation yield after first precipitation step (pure mAb1 [7]; 21 or 31 mg/mL mAb): around 20%
mAb precipitation yield after three precipitation steps (pure mAb1 [7]; 21 or 31 mg/mL mAb): ~80%
mAb precipitation yield (pure mAb1 [8]; 250 μM O16, binding time 2 hours): 88%
mAb precipitation yield (pure mAb1 [8]; 250 μM O16, binding time 24 hours): 92%
Molecule: O16: ligand molecule C12-VVKK[Linker]Z33, linker OEG16
CMC [2]: 10.5 µM
diameter of self-assembled filamentous structures (TEM) [3]: 14.9±1.3 nm

Molecule: O12: ligand molecule C12-VVKK[Linker]Z33, linker OEG12
CMC [2]: 8.5 µM
diameter of self-assembled filamentous structures (TEM) [3]: 13.6±1.2 nm

yield discrepancy between 1M salt and no salt groups (pure mAb1 [4]; 20 μM mAb1, 2.5 mM filler, 100 μM ligand): less than 10%
Molecule: O36: ligand molecule C12-VVKK[Linker]Z33, linker OEG36
CMC [2]: 9.1 µM
diameter of self-assembled filamentous structures (TEM) [3]: 18.5±1.8 nm
mAb precipitation yield, ranking among ligands (pure mAb1 [4]; all conditions (20 and 40 μM mAb1, 1 M salt or no salt)): best mAb precipitation yields in all conditions

Molecule: P2000: ligand molecule C12-VVKK[Linker]Z33, linker PEG2000
CMC [2]: 8.1 µM
diameter of self-assembled filamentous structures (TEM) [3]: 19.3±2.0 nm
